Target: GFP-BAX fusion protein
Experiment: cell-based or functional assay

## mCherry
  percentage of cells with GFP-BAX translocation to mitochondria within 3.5 h after 1 µM staurosporine, live imaging of D407 cells (control without BCLXL): > 95%

## mCherry-BCLXL fusion protein (from UniProt Q64373 1-233)
  percentage of cells with punctate GFP-BAX (translocation to mitochondria) within 3.5 h after 1 µM staurosporine, live imaging of D407 cells: 8%

— US20230392166A1
